Among the data in paper PMC2568807 are attenuation of oCRY1 repression of oCLK/oBM1-induced oRev-erb alpha luciferase reporter transactivation in COS7 cells (100 or 200 ng Fbxl vector) values, retold here.

The test deals with ovine CRY1 (Cryptochrome 1), Flag-tagged (sheep).

Regarding “ovine Fbxl21 full-length, Myc-tagged (from UniProt B3FL73 1-434) (natural protein)”, the attenuation of oCRY1 repression of oCLK/oBM1-induced oRev-erb alpha luciferase reporter transactivation in COS7 cells (100 or 200 ng Fbxl vector) turned out to be 75%.
